{"source": "patent US7101843B2", "about": "“Glucagon-like peptide-1 analogs” (Eli Lilly and Company, priority 2001, dated 2006)", "key": {"GLP-1 receptor": {"molecular_target": "GLP-1 receptor (Homo sapiens, UniProt P43220)", "sequence (P43220 24-463, species assumed)": "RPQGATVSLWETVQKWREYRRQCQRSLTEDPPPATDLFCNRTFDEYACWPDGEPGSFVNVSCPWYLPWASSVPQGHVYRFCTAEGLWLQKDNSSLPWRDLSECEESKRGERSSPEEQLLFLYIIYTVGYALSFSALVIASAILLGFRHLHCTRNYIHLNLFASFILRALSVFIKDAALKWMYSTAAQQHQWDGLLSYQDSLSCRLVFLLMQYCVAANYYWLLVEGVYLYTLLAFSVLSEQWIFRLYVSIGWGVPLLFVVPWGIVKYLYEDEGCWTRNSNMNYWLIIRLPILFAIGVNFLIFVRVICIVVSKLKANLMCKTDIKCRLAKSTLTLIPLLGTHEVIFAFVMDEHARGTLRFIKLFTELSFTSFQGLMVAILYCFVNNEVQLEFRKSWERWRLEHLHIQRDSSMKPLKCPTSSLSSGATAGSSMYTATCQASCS", "assay": "GLP-1 receptor activation in vitro", "assay_type": "cell-based", "details": "Val^8-GLP-1(7-37)OH = 1.0, several values in a cell are repeat determinations", "source_text": "“Insulinotropic activity” refers to the ability to stimulate insulin secretion in response to elevated glucose levels, thereby causing glucose uptake by cells and decreased plasma glucose levels. […] The entire teachings of these references are incorporated herein by reference.\nThe entire teachings of these references are incorporated herein by reference."}, "[1]": {"assay": "GLP aggregation assay (turbidity at 350 nm, time to onset of aggregation)", "assay_type": "physicochemical", "details": "for aggregation time: at 30° C., stirred solution, pH 7.4", "protocol": "GLP peptides of this invention were analyzed with respect to their potential to aggregate in solution. In general, peptides in solution were stirred at elevated temperature in a suitable buffer while recording turbidity at 350 nm as a function of time. Time to the onset of aggregation was measured to quantify the potential of a given GLP molecule to aggregate under these stressed conditions.\nA GLP-1 compound was first dissolved under alkaline conditions (pH 10.5) for 30 minutes to dissolve any pre-aggregated material. The solution was then adjusted to pH 7.4 and filtered. Specifically, 4 mg of a lyophilized GLP-1 compound was dissolved in 3 ml of 10 mM phosphate/10 mM citrate. The pH was adjusted to 10.0–10.5 and held for 30 minutes. The solution was adjusted with HCl to pH 7.4 and filtered through a suitable filter, for example a Millex GV syringe filter (Millipore Corporation, Bedford, Mass.). […] Every five minutes the turbidity of the solution was measured at 350 nm on an AVIV Model 14DS UV-VIS spectrophotometer (Lakewood, N.J.). For 30 seconds prior to and during the measurement the solution was stirred using a magnetic stir bar from Starna Cells, Inc. (Atascadero, Calif.). An increase in OD at 350 nm indicates aggregation of the GLP-peptide. The time to aggregation was approximated by the intersection of linear fits to the pre-growth and growth phase according to method of Drake (Arvinte T, Cudd A, and Drake A F. (1993) J. Bio. Chem. 268, 6415–6422)."}, "[2]": {"test_system": "plasma insulin and plasma glucose", "assay": "Intravenous glucose tolerance test (IVGTT) in rats", "assay_type": "in vivo, wistar male rats", "details": "plasma insulin after injection (figures)", "protocol": "FIG. 1 graphs plasma insulin and plasma glucose concentrations obtained at various time points after injection of increasing concentrations of Val^8-GLP-1(7–37)OH in rats.\nFIG. 2 graphs plasma insulin concentrations obtained at various time points after injection of increasing concentrations of Val^8-Glu^22-Val^25-Ile^33-GLP-1 (7–37)OH in rats.\nA double cannulation procedure was performed on fasting wistar male rats to facilitate injection of solutions and withdrawal of blood. Rats were injected through the jugular cannula with a bolus of 10% glucose solution followed by a solution containing a specific amount of a GLP-1 compound. Rats were injected with 0.01, 0.03, 0.1, 0.3, 1, and 10 μg/kg of GLP-1 compound. Blood was collected through the carotid cannula 2, 4, 6, 10, and 30 minutes following the injection of GLP-1 compound and analyzed. Plasma insulin and plasma glucose levels were measured in each sample. Average insulin and glucose levels are illustrated in FIGS. 1, 2, and 3."}}, "note": "Several values for one entry are separate records, joined by “and”; a condition that tells them apart may be missing. Equal entries are not always repeated.", "data": [{"substance": "Val^8-Tyr^18-Glu^22-GLP-1(7-37)OH (HVEGTFTSDVSYYLEEQAAKEFIAWLVKGRG) [GLP-1 analog]", "values": [{"measurement": "GLP-1 receptor activation relative to Val^8-GLP-1(7-37)OH", "setting": "GLP-1 receptor", "result": "5.1 and 5.9"}]}, {"substance": "Val^8-Tyr^16-Glu^22-GLP-1(7-37)OH (HVEGTFTSDYSSYLEEQAAKEFIAWLVKGRG) [GLP-1 analog]", "values": [{"measurement": "GLP-1 receptor activation relative to Val^8-GLP-1(7-37)OH", "setting": "GLP-1 receptor", "result": "3.6 and 3.8 and 4.9 and 4.6"}]}, {"substance": "Val^8-Glu^30-GLP-1(7-37)OH (HVEGTFTSDVSSYLEGQAAKEFIEWLVKGRG) [GLP-1 analog]", "values": [{"measurement": "aggregation time", "setting": "[1]", "result": "approximately 30 hours"}, {"measurement": "propensity to aggregate in solution compared to Val^8-GLP-1(7–37)OH", "setting": "[1]", "result": "markedly decreased propensity to aggregate"}]}, {"substance": "Val^8-Glu^22-Ile^33-GLP-1(7-37)OH (HVEGTFTSDVSSYLEEQAAKEFIAWLIKGRG) [GLP-1 analog]", "values": [{"measurement": "GLP-1 receptor activation relative to Val^8-GLP-1(7-37)OH", "setting": "GLP-1 receptor", "result": "4.7 and 3.8 and 3.4"}]}, {"substance": "Val^8-Glu^22-Val^25-Ile^33-GLP-1(7-37)OH (HVEGTFTSDVSSYLEEQAVKEFIAWLIKGRG) [GLP-1 analog]", "values": [{"measurement": "GLP-1 receptor activation relative to Val^8-GLP-1(7-37)OH", "setting": "GLP-1 receptor", "result": "4.9 and 5.8 and 6.7"}, {"measurement": "in vivo potency compared to Val^8-GLP-1(7–37)OH", "setting": "[2]", "result": "higher in vivo potency"}]}, {"substance": "Val^8-Glu^22-GLP-1(7–37)OH", "values": [{"measurement": "aggregation time", "setting": "[1]", "result": "approximately 72 hours"}, {"measurement": "propensity to aggregate in solution compared to Val^8-GLP-1(7–37)OH", "setting": "[1]", "result": "markedly decreased propensity to aggregate"}]}, {"substance": "Val^8-His^37-GLP-1(7-37)OH (HVEGTFTSDVSSYLEGQAAKEFIAWLVKGRH) [GLP-1 analog]", "values": [{"measurement": "aggregation time", "setting": "[1]", "result": "greater than 40 hours"}, {"measurement": "propensity to aggregate in solution compared to Val^8-GLP-1(7–37)OH", "setting": "[1]", "result": "markedly decreased propensity to aggregate"}]}, {"substance": "Val^8-Glu^22-Val^25-GLP-1(7-37)OH (HVEGTFTSDVSSYLEEQAVKEFIAWLVKGRG) [GLP-1 analog]", "values": [{"measurement": "GLP-1 receptor activation relative to Val^8-GLP-1(7-37)OH", "setting": "GLP-1 receptor", "result": "4.7 and 2.9"}]}]}
